Reference: patent US20100056764A1 (Novo Nordisk, published 2010)
Where two headings read alike, the source gives them in different places.

How the values were obtained:
[1] = biological target: T1, recombinant NKG2D-Fc protein (R&D Systems), immobilized on a Biacore CM5 chip (human, UniProt P26718 78-216); experiment: SPR (Biacore), mean of the two NKG2D-Fc densities
T1 construct: also called NKG2D-hFc; hFc-NKG2D; not shown: Fc portion of the purchased fusion protein
T1 sequence: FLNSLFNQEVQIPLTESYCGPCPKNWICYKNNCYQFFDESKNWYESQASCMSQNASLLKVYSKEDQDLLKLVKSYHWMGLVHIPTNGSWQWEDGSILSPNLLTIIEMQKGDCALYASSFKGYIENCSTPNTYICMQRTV
Protocol: (§1) Protein immobilisation. […] Recombinant NKG2D-Fc proteins were immobilized covalently to carboxyl groups in the dextran layer on a Sensor Chip CM5 (Biacore GE Healthcare; BR-1000-14). The sensor chip surface was activated with EDC/NHS (N-ethyl-N′-(3-dimethylaminopropyl)carbodiimidehydrochloride and N-hydroxysuccinimide (Biacore GE Healthcare; BR-1000-50)). Proteins were diluted to 10 μg/ml in coupling buffer (10 mM acetate, pH 5.2) and injected until the appropriate immobilization level was reached (i.e. 500 to 1000 RU). Deactivation of the remaining activated groups was performed using 100 mM ethanolamine pH 8 (Biacore GE Healthcare; BR-1000-50).
(§2) Affinity measurement. […] For kinetic experiments, serial dilutions of soluble antibodies (from 0.3 to 30 nanoM) were injected for 2 min at a constant flow rate of 40 μl/min on dextran layers containing immobilized NKG2D-Fc proteins (500 to 1000 RU), and allowed to dissociate for 3 min before regeneration by a eight second injection of 500 mM NaCl and 10 mM NaOH buffer. The resulting sensorgrams were analysed by global fitting using the Langmuir model. The dissociation constant (KD) was calculated as KD=kd/ka.

[2] = biological target: T1, recombinant NKG2D-Fc protein (R&D …); experiment: SPR (Biacore), NKG2D-Fc immobilized on CM5 chip at 600 RU, antibody in solution, Langmuir fit
Protocol: as §1, §2

rat NKG2D = biological target: T2, rat NKG2D (rat, UniProt O70215 1-215, limits assumed); experiment: not described
T2 construct: The assay format for the cross-reactivity test is not described
T2 sequence (looked up): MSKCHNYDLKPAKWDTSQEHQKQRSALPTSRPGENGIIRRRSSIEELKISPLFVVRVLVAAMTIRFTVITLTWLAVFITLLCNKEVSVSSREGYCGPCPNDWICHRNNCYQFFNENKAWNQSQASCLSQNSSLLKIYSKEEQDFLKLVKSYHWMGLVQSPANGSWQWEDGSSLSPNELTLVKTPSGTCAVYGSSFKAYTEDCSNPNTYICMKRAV

pig NKG2D = biological target: T3, pig NKG2D (pig, UniProt Q9GLF5 1-214, limits assumed); experiment: not described
T3 construct: The assay format for the cross-reactivity test is not described
T3 sequence (looked up): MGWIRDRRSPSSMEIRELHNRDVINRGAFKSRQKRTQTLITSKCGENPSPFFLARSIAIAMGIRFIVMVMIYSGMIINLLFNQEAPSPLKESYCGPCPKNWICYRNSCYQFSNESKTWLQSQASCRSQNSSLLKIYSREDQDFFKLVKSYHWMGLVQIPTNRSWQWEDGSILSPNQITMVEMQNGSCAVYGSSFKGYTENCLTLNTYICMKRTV

dog NKG2D = biological target: T4, dog NKG2D (dog, UniProt A0A8I3PNL2 1-217); experiment: not described
T4 construct: The assay format for the cross-reactivity test is not described
T4 sequence: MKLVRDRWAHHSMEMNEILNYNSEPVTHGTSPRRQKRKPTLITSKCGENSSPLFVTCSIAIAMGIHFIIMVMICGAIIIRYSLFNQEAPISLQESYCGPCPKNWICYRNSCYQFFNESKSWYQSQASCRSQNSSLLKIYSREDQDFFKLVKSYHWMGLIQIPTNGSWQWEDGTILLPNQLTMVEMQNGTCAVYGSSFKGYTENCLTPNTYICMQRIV

mouse NKG2D = biological target: T5, mouse NKG2D (mouse, UniProt O54709 1-232, limits assumed); experiment: not described
T5 construct: The assay format for the cross-reactivity test is not described
T5 sequence (looked up): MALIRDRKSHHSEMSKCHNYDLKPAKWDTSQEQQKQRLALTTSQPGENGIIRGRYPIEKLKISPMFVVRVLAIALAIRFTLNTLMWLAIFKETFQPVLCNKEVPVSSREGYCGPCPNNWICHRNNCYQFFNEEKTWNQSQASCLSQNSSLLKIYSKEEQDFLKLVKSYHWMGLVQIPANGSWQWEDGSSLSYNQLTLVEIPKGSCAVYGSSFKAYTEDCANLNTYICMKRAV

[3] = biological target: T6, human NKG2D (hNKG2D) on the cell surface (human, UniProt P26718 1-216); experiment: flow cytometry, dose-response on NKG2D- and DAP10-expressing BaF/3 cells, y axis % of max binding
T6 construct: Carried by BaF/3 cells co-transfected with full-length NKG2D and DAP10, or naturally by human NK, CD8+ T and gamma-delta T cells (PBMC, whole blood); also called cell-surface NKG2D; NKG2D- and DAP10-expressing BaF/3 cells
T6 chain: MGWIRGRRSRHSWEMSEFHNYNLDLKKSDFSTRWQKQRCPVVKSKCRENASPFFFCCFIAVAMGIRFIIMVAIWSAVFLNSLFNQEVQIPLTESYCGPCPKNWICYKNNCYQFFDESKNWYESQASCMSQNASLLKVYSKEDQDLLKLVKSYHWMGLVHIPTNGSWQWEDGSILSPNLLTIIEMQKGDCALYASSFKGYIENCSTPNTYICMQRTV

[4] = biological target: T6, human NKG2D (hNKG2D) on the cell surface; experiment: flow cytometry, NKG2D/DAP10 BaF/3 cells pre-incubated with antibody, then 1 µg MICA-mFc (competitor)
Protocol: (§3) Flow cytometry assays—MICA blockade. […] The cells were then analysed on a B&D FACSArray flow cytometer. The degree of reduction of MICA binding by preincubation was analysed as MFI (mean fluorescence intensity) of binding with pre-incubation in % of binding of MICA without preincubation.

[5] = biological target: T6, human NKG2D (hNKG2D) on the cell surface; experiment: as above
Protocol: as §3

- Kd [1]: 0.172 nM
- Kd [2]: 0.165 nM
- binding result (rat NKG2D): no binding
- binding result (pig NKG2D): no binding
- binding result (dog NKG2D): no binding
- binding result (mouse NKG2D): no binding
- EC50 (read off the curve) [3]: ~0.03 nM
- Full blockade of 1 µg MICA-Fc (antibody concentration) [4]: 0.59 µg/mL
- IC50 [4]: 0.019 µg/mL
- IC50 [5]: 0.017 nM
B1: 16F16, fully human anti-hNKG2D monoclonal antibody, recombinantly expressed as IgG4 isotype (antibody, V domains shown)
VH: EVQLVESGGGLVKPGGSLRLSCAASGFTFSSYSMNWVRQAPGKGLEWVSSITSSSSYIYYADSVKGRFTISRDNAKNSLYLQMNSLRAEDTAVYYCARDRRYFDWFPLDYRGQGTLVTVSS
VL: DIQMTQSPSSLSASVGDRVTITCRASQGISSWLAWYQQKPEKAPKSLIYAASSLQSGVPSRFSGSGSGTDFTLTISSLQPEDFATYYCQQYNGYPYTFGQGTKLEIKR
notes: also called 16F16 IgG4; 16F16 (IgG4)
